Assay results: the supplement of paper PMC9732359
± gives the uncertainty stated by the source.

assay: protein stability index of a GFP-peptide fusion (yeast GPS) (PSI 1-4); higher = more stable; sorted into four equal gates, so the index is relative within each strain; conditions: san1∆
Summary of the method: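 The protein stability index of a peptide was calculated by multiplying its read frequency in each gate by that gate's number and adding the products. The peptides were tiled 17-residue stretches of yeast proteins, fused downstream of GFP on a Cherry-expressing plasmid and carried in yeast as a pooled library. Mid-log cultures in leucine-free medium were sorted into four equal gates by GFP/Cherry ratio, and each gate's plasmids were PCR-amplified and Illumina-sequenced.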

Sequence	protein stability index
EEPSRVDPEQEAHNKAL [RPT4]	3.46 ± 0.063

same assay, conditions: ubr1∆

Sequence	protein stability index
DLINILEKKGFSEVYEY [LIN1]	3.17 ± 0.12
DLKAQFQELDSKKQRNN [RPN9]	3.33 ± 0.052
DLKEGLQDLSRYSRQFI [GRR1]	3.29 ± 0.035
DLKKLNLNVYIQVFEKP [CDC53]	2.78 ± 0.09
DLKLPPMDAYLKLNHII [SNU114]	2.68 ± 0.12
DLKPANIMVTIDGCVKI [SSN3]	1.69 ± 0.25
DLKSKADKLADMANEII [RRP6]	3.16 ± 0.085
DLKSKGLIPADATFAGH [FAS1]	2.98 ± 0.065
DLMDDMSDISDLDDLGF [RPN3]	1.74 ± 0.075
DLSMVPKMKDEEYDDDD [SNF2]	2.99 ± 0.12
DLSTLVHSSSPSTSSNM [GAL11]	2.78 ± 0.039
DLVHIKDSLDNTFVTRL [RPS4A]	3.04 ± 0.058
DLVLQILEDTATMSVFL [RRI2]	2.71 ± 0.038
DNETPSKKTSPKATSSA [YOR098C/NUP1]	3.026 ± 0.029
DNEVQRTMLELITQLDG [RPT1]	2.67 ± 0.15
DNKIDIYQIHIPYAAKL [RPB2]	2.92 ± 0.063
DNKINEIKLLEISCKQW [CSI1]	2.45 ± 0.12
DNLFGETESSVSNNEAN [SWI3]	2.89 ± 0.083
DNTVRTSANGIVQFTYG [RPO31]	2.53 ± 0.11
DNVDFILSNVDLAMANS [RPB3]	2.97 ± 0.05
DPDIPMTIDLEPIEESS [IRR1]	3.15 ± 0.11
DPDKLKPNDLVGVNKDS [RPT5]	3.41 ± 0.098
DPIWQHQSLGPDGLGEV [RET1]	3.35 ± 0.15
DPLVSLMMVEKVPDSTY [RPT6]	2.89 ± 0.063
DPQPFLKHVLQLIFRQQ [SNU114]	2.51 ± 0.038
DQDSAVVSSNIKKIVAD [QCR2]	3.14 ± 0.14

Sequence	protein stability index
DQIEKLREVVELPLLSP [RPT1]	2.94 ± 0.073
DQLAVSPEQIDASPDSL [YCS4]	1.86 ± 0.06
DQLSTISMILRNISFSD [SWI1]	2.31 ± 0.051
DRDALSGWGAVVYIIKK [PUP3]	3.13 ± 0.056
DRINYTETALMNLKKEL [SRB5]	3.18 ± 0.095
DRMAKYLHIRDKILQLN [PGD1]	1.77 ± 0.049
DRSASRAVFLFRCKETH [RPC82]	3.02 ± 0.17
DSEKRNKYAAMLTSENA [RRP45]	2.92 ± 0.04
DSGRGAPLAKVVFRDPY [RPL2A]	3.01 ± 0.067
DSIIDNIVKLCFVHRYK [IRR1]	2.08 ± 0.035
DSLIQLANRSKENFILD [YJL039C/NUP192]	3.13 ± 0.11
DSRKNREQSSNDSETHT [BRN1]	3.52 ± 0.14
DSSSNTYRSRAQQVPPY [SIN4]	1.61 ± 0.11
DSTAVALEEGLNEEAVI [YJL039C/NUP192]	2.98 ± 0.05
DSTSHNNGSSDKSLDSS [MED1]	3.08 ± 0.046
DSVTTETGKLLSGLAQR [BRN1]	2.66 ± 0.072
DSYLDADKELSFEINVK [BRR2]	2.88 ± 0.034
DTADEAKTLIPSLNNKI [RPB4]	3.1 ± 0.078
DTAPKPNIVEIDLDNDE [DLS1]	3.27 ± 0.091
DTAVKTAETGYIQRRLV [RPO21]	2.13 ± 0.058
DTFGEGIIITDQSNVQY [BRR2]	2.94 ± 0.093
DTFYMNVESVGSIPVDQ [RPB3]	2.2 ± 0.12
DTICQSIQEQIQEFQGN [SNF5]	3.6 ± 0.075
DTKNLYVIKALQSLTSK [RPS10A]	1.34 ± 0.078
DTKNSKSESPSEVLVDT [ISW2]	3.27 ± 0.063
DTLKDISTSFCFICLLH [BRN1]	1.95 ± 0.083

Sequence	protein stability index
DTRSTQGPIVADKNCAK [PUP1]	3.04 ± 0.086
DTTVPKRLGPKRANNIR [RPS6A]	3.37 ± 0.063
DTVIIFDTDWNPHQDLQ [SNF2]	2.84 ± 0.044
DVDPIELVVFLPALCKK [RPL8A]	3.03 ± 0.057
DVIATEPQGAVTHMDQI [SMD3]	2.47 ± 0.088
DVLINELLDQVTLGREG [CDC53]	3.17 ± 0.066
DVQKSSDSSSEDEVKVE [YLR335W/NUP2]	2.31 ± 0.044
DVSPLRRVNQAIALLTI [RPS5]	1.47 ± 0.055
DVVTREYTINLHKRLHG [RPL31A]	1.71 ± 0.067
DWEKYKAPLEDDDKKPD [RPT1]	3.31 ± 0.16
DWQMMTSPVTGATEKRK [CSL4]	1.52 ± 0.062
DWVRFLALALGILYMGQ [RPN1]	1.24 ± 0.18
DYAQLDHLVSSIPMGGQ [ARP9]	2.15 ± 0.053
DYIKDEQRHLKRELKRA [RPT3]	1.68 ± 0.037
DYLFHLLISLNILFSLW [YLR018C/POM34]	1.21 ± 0.03
DYNFKYGIPLEFYNEMH [PRP8]	3.15 ± 0.083
DYYQSIYAKYGAKGSTL [FAS2]	3.13 ± 0.076
EAAAVRDLSEASVYPEY [RPS26A]	2.93 ± 0.09
EAASITRKSLNNAVRFS [ECM29]	2.97 ± 0.048
EAKDAIIELENINAKME [YIL149C/MLP2]	2.84 ± 0.088
EALAFTSLVANENDKIY [YDL116W/NUP84]	2.93 ± 0.062
EAQANLLTAKHGMTLRE [RPO21]	2.8 ± 0.11
EASSLGYLDDSEILIIS [IRR1]	1.87 ± 0.036
EASTVPWGDYLQLETPA [BRR2]	1.53 ± 0.098
EAVELPLVQADLYEQIG [RPT3]	2.93 ± 0.17
EAVIDEKLEVIADELMK [ITC1]	3.27 ± 0.12

Sequence	protein stability index
ECYKQLFLTAPDSCNMQ [YCS4]	2.5 ± 0.083
EDAKLKTDLELLVERLK [RPN1]	1.51 ± 0.073
EDAKYVINLKQIAKFVV [RPT1]	1.96 ± 0.1
EDDEFEDFPIDTWANGE [SEM1]	3.03 ± 0.078
EDEEEEEEVTDQLEDLR [QCR6]	3.25 ± 0.089
EDFLDKSYYLNTVMLQG [AAR2]	1.22 ± 0.052
EDFLHFIVAEYIQQKKV [SRB4]	2.9 ± 0.067
EDFQKRQQKLLEDQQRQ [SWI1]	3.19 ± 0.047
EDLLECLDRCKEQYNRY [MTR3]	3.38 ± 0.085
EDMIDQVSKKLSSIEAS [SMC3]	3.05 ± 0.12
EDVVAISSRTFGQRAVL [RPS0A]	3.1 ± 0.047
EEAPAPTPAASAPAPAA [FAS2]	3.02 ± 0.1
EEDYNEFNSIDRVIFRV [PRP8]	2.94 ± 0.068
EEEYDETHETNISNAKL [YAR002W/NUP60]	3.31 ± 0.065
EEIPINSSEQESDYEPN [SIR3]	2.77 ± 0.048
EEISRLQRDLIQTKEQV [YIL149C/MLP2]	3.11 ± 0.082
EEIVSNSSRFSDPMLQR [YCS4]	3.07 ± 0.056
EEKQKSYKFPRGTTAVL [PUP1]	2.91 ± 0.088
EELFTQLFHSMSIVFGD [UBP6]	2.98 ± 0.089
EELINAAKGSSTSYAIK [RPS5]	1.76 ± 0.044
EELRGQQTEHETEIKDL [SMC4]	3.37 ± 0.053
EENFEATRTLVASIQND [YCG1]	2.71 ± 0.14
EEPSRVDPEQEAHNKAL [RPT4]	3.23 ± 0.11
